B1: MIS1: yeast GST-HisX6 fusion protein on proteome chip (protein, UniProt P09440 35-975, looked up)
C-1-tetrahydrofolate …: YHILSGRKLAQSIREKANDEIQAIKLKHPNFKPTLKIIQVGARPDSSTYVRMKLKASKDSNVDCIIEKLPAEITEVELLKKISDINDDDSIHGLLIQLPLPRHLDETTITNAVDFKKDVDGFHRYNAGELAKKGGKPYFIPCTPYGCMKLLEEAHVKLDGKNAVVLGRSSIVGNPIASLLKNANATVTVCHSHTRNIAEVVSQADIVIAACGIPQYVKSDWIKEGAVVIDVGINYVPDISKKSGQKLVGDVDFDSVKEKTSYITPVPGGVGPMTVAMLVSNVLLAAKRQFVESEKLPVIKPLPLHLESPVPSDIDISRAQSPKHIKQVAEELGIHSHELELYGHYKAKISPNIFKRLESRENGKYVLVAGITPTPLGEGKSTTTMGLVQALSAHLGKPSIANVRQPSLGPTLGVKGGAAGGGYAQVIPMDEFNLHLTGDIHAISAANNLLAAAIDTRMFHEATQKNDSTFYKRLVPRKKGIRKFTPSMQRRLKRLDIEKEDPDALTPEEVKRFARLNINPDTITIRRVVDINDRMLRQITIGEAATEKGFTRTTGFDITVASELMAILALSKSLHEMKERIGRMVIGADYDNKPVTVEDIGCTGALTALLRDAIKPNLMQTLEGTPVMVHAGPFANISIGASSVIADLMALKLVGSEKNPLNDKNIHEPGYVVTEAGFDFAMGGERFFDIKCRSSGLVPDAVVLVATVRALKSHGGAPNVKPGQSLPKEYTEENIDFVAKGVSNLVKQIENIKTFGIPVVVAINRFETDSQAEIEVIKKAALNAGASHAVTSNHWMEGGKGAVELAHAVVDATKEPKNFNFLYDVNSSIEDKLTSIVQKMYGGAKIEVSPEAQKKIDTYKKQGFGNLPICIAKTQYSLSHDPSLKGVPRGFTFPIRDVRASIGAGYLYALAAEIQTIPGLSTYAGYMAVEVDDDGEIEGLF
modifications: GST-His6 fusion tag
notes: yeast GST-HisX6 fusion protein on proteome chip
B2: KCS1: yeast GST-HisX6 fusion protein on proteome chip (protein, UniProt Q12494 1-1050, looked up)
Inositol hexakisphosphate …: MDTSHEIHDKIPDTLREQQQHLRQKESEGCITTLKDLNVPETKKLSSVLHGRKASTYLRIFRDDECLADNNNGVDSNNGGSVTCADKITRSEATPKSVPEGLQVSEKKNNPDTLSSSLSSFILSNHEEPAIKPNKHVAHRNNITETGQGSGEDIAKQQSHQPQVLHHQTSLKPIQNVDEGCISPKSTYQESLHGISEDLTLKPVSSATYYPHKSKADSGYEEKDKMENDIDTIQPATINCASGIATLPSSYNRHTFKVKTYSTLSQSLRQENVNNRSNEKKPQQFVPHSESIKEKPNTFEQDKEGEQADEEEDEGDNEHREYPLAVELKPFTNRVGGHTAIFRFSKRAVCKALVNRENRWYENIELCHKELLQFMPRYIGVLNVRQHFQSKDDFLSDLDQENNGKNDTSNENKDIEVNHNNNDDIALNTEPTGTPLTHIHSFPLEHSSRQVLEKEHPEIESVHPHVKRSLSSSNQPSLLPEVVLNDNRHIIPESLWYKYSDSPNSAPNDSYFSSSSSHNSCSFGERGNTNKLKRRDSGSTMINTELKNLVIREVFAPKCFRRKRNSNTTTMGNHNARLGSSPSFLTQKSRASSHDASNTSMKTLGDSSSQASLQMDDSKVNPNLQDPFLKKSLHEKISNALDGSHSVMDLKQFHKNEQIKHKNSFCNSLSPILTATNSRDDGEFATSPNYISNAQDGVFDMDEDTGNETINMDNHGCHLDSGKNMIIKSLAYNVSNDYSHHDIESITFEETSHTIVSKFILLEDLTRNMNKPCALDLKMGTRQYGVDAKRAKQLSQRAKCLKTTSRRLGVRICGLKVWNKDYYITRDKYFGRRVKVGWQFARVLARFLYDGKTIESLIRQIPRLIKQLDTLYSEIFNLKGYRLYGASLLLMYDGDANKSNSKRKKAANVKVNLIDFARCVTKEDAMECMDKFRIPPKSPNIEDKGFLRGVKSLRFYLLLIWNYLTSDMPLIFDEVEMNDMISEEADSNSFTSATGSKINFNSKWDWLDEFDKEDEEMYNDPNSKLRQKWRKYELIFDAEPRYNDDAQVSD
modifications: GST-HisX6 tag
notes: as for B1
B3: SXM1: yeast GST-HisX6 fusion protein on proteome chip (protein, UniProt Q04175 1-944, looked up)
Importin beta SMX1: MVQEQAILSCIEQTMVADAKIIKEAEQQLFEFQKQPGFTSFLLNIVSDDNFALNVRLSSAIYLKNKIHRSWDTKREDGIKADEKLSIKERLIETLVKNCENNHIRPILTETINGILVGQEDWDLAPIIKNLLSSGDASYIYPGLLLLFQLCKAHRWDMVGSRDYIDSVIEELFPIVEGIASNIGSQTDYRSNEILYLILKSFKYACLNNLPQYFSQPERIMSWVQLHLYLCSKPLPVEVMELDPADRSLDKRVKVNKWGFGNLNRFLQRYNKITKAITKEFIDYIFNTIVPIILREFFKDIEAWGNNSLWLSDSSLYFLISFLEKCVTIDQLYPLIEPHLQIIFENVIFPCLCANEQSIELLEDDQEEYTRRYFDINREGSTPDAASADFIFLIGSKRPEKLNNILPFINDIFTRFDANSSDINMAFKEEGALRTLSNLFSFIDEPSVLENIFGHFIVPLLSQDKYMFLVARSLETIALYSEEFKDMNILSQLFELTYTNFLNSNVLPVQIEAADAIKCLIVSNPQIHPAVSAHVPGMMEKLLKLSKIFEIDILSEVMEALVERFSDELSPFAKDLASNLVEQFLRIAQALVENPSETYSASDQEQEIQASGLLQTMTTMVMSMNKVPLIESLAPVVKFVVLHAQISFITEAVDLLDALTISSHLLYNQIAPPIWELLHDILDSFQTYAMDYFEAYSIFFETIVMTGFPQDQTYVQPLLEILSAKLESEVDYDIEHVMQILMYFALSMRDIPLFSKAIKVSTNDELGLDSKCIVKLGLANLFAKPIETLQIMENEGFTINFFTNWFNEKFYSVFAIKLQVLVILTLLKMPEVPNSVSPLLNNLTNKLVELTLSLPKAIRNRDAVTEGKSLEGDLTPEEEEEYFIECDDDMKETVLDQINVFQEVHTFFKNLQNEDAGKYEKIINYLDESKRDSLQVILEFVSQH
modifications: GST-His6 tag
notes: as for B1

What was measured:
Conditions in all cases: liposome binding signal on yeast proteome chip, Cy3-streptavidin detection
PI(3,4,5)P3 liposomes = assay: Yeast proteome chip probed with PI(3,4,5)P3 liposomes
PI(3)P liposomes = assay: Yeast proteome chip probed with PI(3)P liposomes
From the text: To identify PI-binding proteins in yeast, liposomes were used as probes because the liposome provides the most relevant physiological condition to assay the interactors. Six types of liposomes were used. Each contains phosphatidylcholine (“PC”) with 1% (w/w) N-(biotinoyl)-1,2-dihexadecanoyl-sn-glycero-3-phosphoethanolamine, triethylammonium salt (biotin DHPE). The biotinylated lipid serves as a label that can be detected by Cy3-streptavidin (21). In addition to PC, the five other liposomes contain either 5% (w/w) PI(3)P, PI(4)P, PI(3,4)P2, PI(4,5)P2, or PI(3,4,5)P3 (FIG. 3A).
The protein-liposome interaction was assayed as follows. Appropriate amounts of each lipid in chloroform were mixed and dried under nitrogen. The lipid mixture was resuspended in TBS buffer by vortexing. The liposomes were created by sonication. Blocked proteome chips were washed three to five times in PBS buffer, and the extra liquid on the glass surface was removed by tapping the slides vertically on a KIMWIPE™. 200 μl of liposome solution was added to the proteome chip and immediately covered by a hydrophobic plastic cover slip (GRACE BIO-LAB™, USA). After trapped air bubbles were removed, the chip was incubated in a humidity chamber at RT for one hour. To remove the cover slip, the chip was immersed into large volume of PBS buffer (50 ml), so that the slip would float away. The chip was then moved to a second PBS bath (>50 ml) and washed 3×5 min with shaking at RT. After removing extra liquid on the surface of the chip, about 100 μl of Cy3 or Cy5 conjugated streptavidin (PIERCE™, USA; 1:2000 to 1:4000 dilution) was added to the surface and covered by a hydrophobic plastic cover slip (GRACE BIO-LABS™, USA). The chip was incubated for greater than 30 min in the dark at RT. The chip was then washed as described above. To completely remove the liquid on the chip, the chip was spun to dryness at 1500-2000 rpm for 5-10 min at RT.
• 1. S. Fields, Y. Kohara, D. J. Lockhart, Proc. Natl. Acad. Sci. 96, 8825 (1999); A. Goffeau et al., Science 274, 563 (1996). • 2 P. Ross-Macdonald et al., Nature 402, 413 (1999); J. L., DeRisi, V. R. Iyer, P. O. Brown, Science 278, 680 (1997); E. A. Winzeler et al., Science 285, 901 (1999). P. Uetz et al., Nature 403, 623 (2000); T. Ito et al., Proc. Natl. Acad. Sci. USA. 97, 1143 (2000) • 3 H. Zhu, M. Snyder, Curr. Opin. Chem. Biol. 5, 40 (2001). • 4 M. R. Martzen et al., Science 286, 1153 (1999). • 5 H. Zhu et al., Nat. Genet. 26, 283 (2000). • 6 G. MacBeath, S. L. Schreiber, Science 289, 1760 (2000). • 7 A. Caveman, J. Cell Sci. 113, 3543 (2000). • 8 P. Arenkov et al., Anal. Biochem 278, 123 (2000). • 9 D. A. Mitchell, T. K. Marshall, R. J. Deschenes, Yeast 9, 715 (1993). The expression vector pEGH was created by inserting an RGS-HisX6 epitope tag between the GST gene and the polycloning site of pEG(KG). The yeast ORFs were cloned using the strategy described previously (5), except every step was done in a 96-well format. Plasmid DNAs confirmed by DNA sequencing were reintroduced into both yeast (Y258) and E. coli (DH5a). […] 0.1 mM calcium was present in buffers in all subsequent steps. The chip was washed three times with PBS at RT. Cy3-conjugated streptavidin (Jackson IR, USA) (1:5000 dilution) was added to the chip and incubated for 30 min at RT. After extensive washing, the chip was spun dry and scanned using a microarray scanner; the data was subsequently acquired with the GENEPIX™ array densitometry software (Axon, USA). • 12 S. S. Hook, A. R. Means, Annu. Rev. Pharmacol. Toxicol.41, 471 (2001). • 13 M. S. Cyert, R. Kunisawa, D. Kaim, J. Thorner, Proc. Natl. Acad. Sci. USA 88, 7376 (1991). • 14 D. A. Stirling, K. A. Welch, M. J. Stark, EMBO J. 13, 4329 (1994). • 15 F. Bohl, Kruse, EMBO J. 19, 5514 (2000); E. Bertrand et al., Mol. Cell 2, 437 (1998). • 16 D. C. Winter, E. Y. Choe, R. Li, Proc. Nat. Acad Sci. USA 96, 7288 (1999). • 17 C.

PI(3,4)P2 liposomes = assay: Yeast proteome chip probed with PI(3,4)P2 liposomes
[1] = tested on: phosphatidylcholine (PC) liposomes; assay: Yeast proteome chip probed with PC liposomes
Method in brief: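 Yeast proteome chips incubated 1 h at RT with sonicated liposomes of PC containing 1% (w/w) biotin-DHPE, plus 5% (w/w) of the indicated phosphoinositide where applicable. After PBS washes, bound liposomes detected with Cy3- or Cy5-streptavidin (>30 min, RT, dark) and fluorescence scanned.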

PI(4)P liposomes = assay: Yeast proteome chip probed with PI(4)P liposomes
PI(4,5)P2 liposomes = assay: Yeast proteome chip probed with PI(4,5)P2 liposomes

Row | Molecule | PI(3, 4, 5)P3 (PI(3,4,5)P3 liposomes) | PI(3)P (PI(3)P liposomes) | PI(3, 4)P2 (PI(3,4)P2 liposomes) | PC [1] | PI(4)P (PI(4)P liposomes) | PI(4, 5)P2 (PI(4,5)P2 liposomes)
1 | B1 | 43.65 | 3.50 | 86.34 | 71.02 | 65.32 | –
2 | B2 | 36.22 | 0.00 | 60.91 | 42.85 | 35.27 | –
3 | B3 | 23.40 | – | 19.15 | 51.95 | 30.48 | 27.22

— patent US20050182242A1, “Global analysis of protein activities using proteome chips” (priority 2001, published 2005)
